{"source": "the DeepSol protein solubility set"}
{"assay": "soluble on expression in E. coli; label from the status in PepcDB or PDB records"}
{"sequence": "VKSLFLLVLGNTEISTIPGISVAGATPELTKITPVADAEYLFYEKPLTIDTIPVTPEGHPTPAIITKAARELSNFPILVVRGGTYLAPLIPHVHISNVVGRDFRREPALPEVEVIIERAKLLGKELEKIANEIVIGESTPGGTTTAQAILWALGYEAKTSSASPENPQELKEKVIKEGFKRVGIEKGGLKDKPLEALKEFGDPMIATVLGLSLGFGGDVVLAGGTQMLAVSALLKSLGEDLSRFMIATTRWVVEDPSATFIETAREIGIISYVAELDFSKSKFKGLRDYERGYVKEGVGAGGATWLAV", "soluble on expression in E. coli": "not soluble"}
{"sequence": "SQLTHINAAGEAHMVDVSAKAETVREARAEAFVTMRSETLAMIIDGRHHKGDVFATARIAGIQAAKRTWDLIPLCHPLMLSKVEVNLQAEPEHNRVRIETLCRLTGKTGVEMEALTAASVAALTIYDMCKAVQKDMVIGPVRLLAKSGGKSGDFKVEADD", "soluble on expression in E. coli": "not soluble"}
{"sequence": "MSIKIGLLGFGTVASGMPFLLKENKDKITAASGTKLEIAKVLVKDDDEKKRLLAAGNDFNFVTNVDDILSDDDIAIVVELMGRIEPAKTFITKALEAGKHVVSANKDLIATHGKELIRLAQDKGVAFYYEAAVAGGIPILRTLANSLTSDKVTRILGVLNGTSNFMMTKMVDEGWTYEAALKKAQELGYAESDPTNDVEGIDAAYKAVILSQFGFGMTIDFDQVVHQGISSITPDDVAMAQQLGYVIKLVGSVEETPSGIFAEVSPTFLPKSHPLASVNDVMNAVFVESIGIGESMYYGPGAGQKPTATSVVADVIRIARRIKDGNVGKCFNEFIRETKIAHPDDVKSHYYFAINTADEKGKMLRLAEIFNSEDISFEQVLQQKANGEQARVVIITHSLSKSQLVNVTEKLQAVADFKLLNTFKVLGE", "soluble on expression in E. coli": "not soluble"}
{"sequence": "MTTKNTLQPTEAAYIAGFLDGDGSIYAKLIPRPDYKDIKYQVSLAISFIQRKDKFPYLQDIYDQLGKRGNLRKDRGDGIADYTIIGSTHLSIILPDLVPYLRIKKKQANRILHIINLYPQAQKNPSKFLDLVKIVDDVQNLNKRADELKSTNYDRLLEEFLKAGKIESSPTGSGSGSKHPTLTLPTTTSQENLPNGSGSGSGTMTTKNTLQPTEAAYIAGFLDGDGSIYAKLIPRPDYKDIKYQVSLAISFIQRKDKFPYLQDIYDQLGKRGNLRKDRGDGIADYTIIGSTHLSIILPDLVPYLRIKKKQANRILHIINLYPQAQKNPSKFLDLVKIVDDVQNLNKRADELKSTNYDRLLEEFLKAGKIESSP", "soluble on expression in E. coli": "soluble"}
{"sequence": "MGHHHHHHSHMFGYVVVNEQNSIVFLDGNEEFKTIFQSLIQSEITSRKSDLDSASSGVGSSTCTEEQESSLDHFKKPNVVFNSSEISHILLPLILLYRSTSEKTKDPITEMSSQFGTISISKFYHNYLVLVFANDDRKRIEVSQTIEHTIATLFGPLIAFCHTDLTTVKKPKEHLACALTRKLSYSPKC", "soluble on expression in E. coli": "not soluble"}
{"sequence": "SNAMNNIRLLNQNDLDSYIELMKFGHHNYEWDRYYLENVSIDRLKTILSNHTDYWNIFGAFEDDELVATCTLKQMNYVGKCHKAILENNFVKNNDEIVNRELINHIIQYAKEQNIETLMIAIASNNISAKVFFSSIGFENLAFEKNASKIGNEYFDENWLIYSTTESSD", "soluble on expression in E. coli": "soluble"}
{"sequence": "MFDRYESGERAILVHVFFSQDRDTDDLLEFESLVSSAGIESLQVVTGSRKAPHPKYFVGEGKAEEIAQAVKETGAFVVLFNHALTPAQERNLERLCECRVIDRTGLILDIFAQRARTHEGKLQVELAQLRHLATRLVRGWTHLERQKGGIGLRGPGETQLETDRRLLRNRISQILLRLERVEKQREQGRRSRVRADVPTVSLVGYTNAGKSTLFNKITSAGVYVADQLFATLDPTLRRIQVDDVGDTVLADTVGFIRQLPHDLVAAFKATLQETRQASLLLHVVDAADPRLDENIDAVNDVLAEIEADEIPALLVMNKIDMLDDFVPRIDRNEENLPIRVWLSAQTGDGIPLLFQALTERLSGEIAQYTLHLPPQAGRLRSRFYQLQAIEKEWIEEDGQIGLVIRMPIADWRRLCKKEQELMDYIALEHHHHHH", "soluble on expression in E. coli": "not soluble"}
{"sequence": "DALAVALLQARGFSAEDFALSHPGGALGRKLLLKLSDIMHFGNALPKVSPDALIRDALLEISEKGLGMTAIVDEHDAMLGIFTDGDLRRTLDKRIDIHTTAIGEVMTKNPTTAHPEMLAVEGLNLMQNKNINALILCKEDKIVGALNMHDLLKAGVM", "soluble on expression in E. coli": "not soluble"}
{"sequence": "MGSDKIHHHHHHMAYFAEIFQIPFEESWGYVTNGGTEGNMFGCYLARELFPDSTLYYSKDTHYSVGKIAKLLQMKSCVIESLDNGEIDYDDLIHKIKTNKESHPIIFANIGTTMTGAIDDIEMIQERLAQIGIMRRDYYIHADAALSGMILPFVDHPQAFSFAHGIDSICVSGHKMIGSPIPCGIVVAKRQNVERISVDVDYISTRDQTISGSRNGHTVLLMWAAIRSQTNLQRRHRIQHCLKMAQYAVDRFQAVGIPAWRNPNSITVVFPCPSEHIWKKHYLATSGNMAHLITTAHHRDTRQIDSLIDDVIFDLQGASKRTVGF", "soluble on expression in E. coli": "not soluble"}
{"sequence": "MINQNATYMEESAQSAVDNFGLGFNLGNTLDANGCGTGKPVATYETFWGQPETTQDMMTFLMQNGFNAVRIPVTWYEHMDAEGNVDEAWMMRVKAIVEYAMNAGLYAIVNVHHDTAAGSGAWIKADTDVYAATKEKFKKLWTQIANALADYDQHLLFEGYNEMLDGNNSWDEPQKASGYEALNNYAQDFVDAVRATGGNNATRNLIVNTYAAAKGENVLNNFMLPTDAVNNHLIVQVHSYDPWNFFNTKTTWDSECHNTLTEIFSALSKKFTTIPYIIGEYGTHGESDISVSKSSPAEKIKLAADQAADMVKLAKDHHSATFYWMSIFDGSDRIQPQWSLPTVVEAMQEAYNN", "soluble on expression in E. coli": "soluble"}
{"sequence": "MGSDKIHHHHHHMNHFFVEFGEYEASVCEWGDKSNPQIICFHGLGSTKLSFIEVAELLKDSYHIVSFDLPGHGKTQNFEKDEDYGASHLTNWVVALLEHIGKETFHIVAHSWGASVALHYAAECPEKVNKIVLLDGGYHHGKMNADYFANLYKDAKEGECPPRSLEEEITHYENDFDEYIFDSKETFIQSEKLAYSRWSPLLERAVYDLMREEDSKVKWHATGDTARGVIKFQYTVYKTLKPHKIKSDILLLYCDLPDNYLEIRELQIVEFKKRINITTKLYKDTGHLMHWDRPEEIAEDVLHWFK", "soluble on expression in E. coli": "not soluble"}
{"sequence": "MSSGNRQAPMPPPKPRNLGRGQFYQQGGYLTPQDSDTDSGISADCDQGSPRAAAGFGGTGFNGTVNGQQVNSQRRIPDLPPGAYQNYRSHSSADYLTPNSARKIASYSTTPRRLPLQPQQQAPATATKAKYRVRFADEVDSGASTSSGTSSTHISPRNDPQEMLMNSAVGAPQITSTFQQPASYMQNSSDAQYKMNKIEYPPVSRTPPVACSSRTGTLQRTPNRRLPISSTPQPQPTYADQMQSLPEPPPYTIAMQRLRSVEQQPQESFRDAFIRKSVNDTLQRRYRQRSSSLPRGNKSYYEGIDIYDAQPPIRPLPQQQTSLMTVANQLPGSLDNLHINNLNMRRRKLPTAPLMGSSCQLHLDNSDELTAYRALQFQMMQDELQRQQPPPQSFERPTLLRRTNMPQQQSFNIPHITTTGPPPPAMGLSVPVQYDQGEYGTQSVRAQLVALDQRGFRRVLVEKMMPGPFGFYIATGVVAGQRAGIFISRVSLPSLSPMLTVGDEIIYVDEEYVKGRSLEYVQSLRIFEFQTELITEEPPHKQVIFM", "soluble on expression in E. coli": "not soluble"}
{"sequence": "MGHHHHHHSHMEEMKKTAIRLPKGKQKPIKTEWNSRCVLFTYFQGDISSVVDEHFSRALSNIKSPQELTPSSQSEGVMLKNDDSMSPNQWRYSSPWTKPQPEVPVTNRAANCNLHVPGPMAVNQFSPSLARRASVRPGELWHFSSLAGTSSLEPGYSHPFPARHLVPEPQPDGKREPLLSLLQQDRCLARPQESAARENGNPGQIAGSTGLLFNLPPGSVHYKKLYVSRGSASTSLPNETLSELETPGKYSLTPPNHWGHPHRYLQHL", "soluble on expression in E. coli": "not soluble"}
{"sequence": "MGSDKIHHHHHHMNDLLKVIHNRASIRKFTGEHIPESDMEQIMSAAQSVPSINNYQPVTYVEITDQSVKDQAADLVNMPYVASSDRFFVILADYHKLLVGFEGKEREIAQTNLSAYNIAEGAALSAGVSAYAAIIAAESLGYGGVTMAGPVRAFQIYENYLDLPEMTKVVFTLALGVPDGHPGVKPKLPLSTFWQKDSYDTNVIDQGIADYNKTMRSYYESRNIDENWTEHNKKALTKAKDTTALTEYAKRKGFNLK", "soluble on expression in E. coli": "not soluble"}
